Data published in US7657380.
Substitutions are numbered along the chain they refer to.

T1: human CD30 (commercial, conjugated to digoxigenin) (human, UniProt P28908 19-379, limits assumed, conjugated to digoxigenin (DIG))
T1 sequence (looked up): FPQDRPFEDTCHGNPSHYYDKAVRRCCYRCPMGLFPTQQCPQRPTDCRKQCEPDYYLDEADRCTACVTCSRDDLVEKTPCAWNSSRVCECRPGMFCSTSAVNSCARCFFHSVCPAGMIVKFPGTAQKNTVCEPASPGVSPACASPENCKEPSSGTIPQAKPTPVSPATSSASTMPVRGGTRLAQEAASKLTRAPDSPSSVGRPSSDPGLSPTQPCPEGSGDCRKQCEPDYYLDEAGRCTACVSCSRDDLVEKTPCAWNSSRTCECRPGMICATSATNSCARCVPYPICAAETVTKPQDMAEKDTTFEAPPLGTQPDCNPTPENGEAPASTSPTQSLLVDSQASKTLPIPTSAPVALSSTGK

B1: AC10 H3/L3.5 (antibody, IgG1, name in Kabat numbering, V domains shown)
VH: QIQLVQSGPEVKKPGASVKVSCKASGYTFTDYYITWVRQAPGQGLEWMGWIYPGSGNTKYNEKFQGRFVFSVDTSASTAYLQISSLKAEDTAVYFCANYGNYWFAYWGQGTLVTVSS
VL: DIQLTQSPDSLAVSLGERATINCKASQSVDFDGDSYMNWYQQKPGQPPKVLIYAASNLESGIPARFSGSGSGTDFTLTINSLEAEDAATYYCQQSNEDPWTFGGGTKVEIK
B2: AC10 H3/L3.6 (antibody, IgG1, name in Kabat numbering, V domains shown)
VH: B1 VH
VL: B1 VL with Q3V, L4M
B3: AC10 H3/L3.3 (antibody, IgG1, name in Kabat numbering, V domains shown)
VH: B1 VH
VL: B1 VL with D1N, Q3V
B4: AC10 H3/L3.9 (antibody, IgG1, name in Kabat numbering, V domains shown)
VH: B1 VH
VL: B1 VL with Q3V, V29I
B5: AC10 H3/L3.13 (antibody, IgG1, name in Kabat numbering, V domains shown)
VH: B1 VH
VL: B1 VL with Q3V, F31D
B6: AC10 H3/L3.4 (antibody, IgG1, name in Kabat numbering, V domains shown)
VH: B1 VH
VL: B1 VL with D1S, Q3V
B7: AC10 H3/L3.2 (antibody, IgG1, name in Kabat numbering, V domains shown)
VH: B1 VH
VL: B1 VL with D1E, Q3V
B8: AC10 H3/L3.12 (antibody, IgG1, name in Kabat numbering, V domains shown)
VH: B1 VH
VL: B1 VL with Q3V, D30V
B9: AC10 H3/L3.1 (antibody, IgG1, name in Kabat numbering, V domains shown)
VH: B1 VH
VL: B1 VL with D1A, Q3V
B10: AC10 H3/L3.8 (antibody, IgG1, name in Kabat numbering, V domains shown)
VH: B1 VH
VL: B1 VL with Q3V, S28D
B11: AC10 H3.24/L3 (antibody, IgG1, name in Kabat numbering, V domains shown)
VH: B1 VH with Y52N
VL: B1 VL with Q3V
B12: AC10 H3.27/L3 (antibody, IgG1, name in Kabat numbering, V domains shown)
VH: B1 VH with P53A
VL: B1 VL with Q3V
B13: AC10 H3.36/L3 (antibody, IgG1, name in Kabat numbering, V domains shown)
VH: B1 VH with N61S
VL: B1 VL with Q3V
B14: AC10 H3.64/L3 (antibody, IgG1, name in Kabat numbering, V domains shown)
VH: B1 VH with Q109R
VL: B1 VL with Q3V
B15: AC10 H3.62/L3 (antibody, IgG1, name in Kabat numbering, V domains shown)
VH: B1 VH with Y106L
VL: B1 VL with Q3V
B16: AC10 H3.61/L3 (antibody, IgG1, name in Kabat numbering, V domains shown)
VH: B1 VH with Y106V
VL: B1 VL with Q3V
B17: AC10 H3.30/L3 (antibody, IgG1, name in Kabat numbering, V domains shown)
VH: B1 VH with S55N
VL: B1 VL with Q3V
B18: AC10 H3.43/L3 (antibody, IgG1, name in Kabat numbering, V domains shown)
VH: B1 VH with V72M
VL: B1 VL with Q3V
B19: AC10 H3.58/L3 (antibody, IgG1, name in Kabat numbering, V domains shown)
VH: B1 VH with A105Q
VL: B1 VL with Q3V
B20: AC10 H3.33/L3 (antibody, IgG1, name in Kabat numbering, V domains shown)
VH: B1 VH with K59N
VL: B1 VL with Q3V
B21: AC10 H3.59/L3 (antibody, IgG1, name in Kabat numbering, V domains shown)
VH: B1 VH with Y106H
VL: B1 VL with Q3V
B22: AC10 H3.63/L3 (antibody, IgG1, name in Kabat numbering, V domains shown)
VH: B1 VH with Y106F
VL: B1 VL with Q3V
B23: AC10 H3.60/L3 (antibody, IgG1, name in Kabat numbering, V domains shown)
VH: B1 VH with Y106S
VL: B1 VL with Q3V
B24: AC10 H3.41/L3 (antibody, IgG1, name in Kabat numbering, V domains shown)
VH: B1 VH with Q65T
VL: B1 VL with Q3V
B25: AC10 H3.54/L3 (antibody, IgG1, name in Kabat numbering, V domains shown)
VH: B1 VH with N98R
VL: B1 VL with Q3V
B26: AC10 H3.52/L3 (antibody, IgG1, name in Kabat numbering, V domains shown)
VH: B1 VH with N98H
VL: B1 VL with Q3V
B27: AC10 H3.46/L3 (antibody, IgG1, name in Kabat numbering, V domains shown)
VH: B1 VH with V93M
VL: B1 VL with Q3V
B28: AC10 H3.38/L3 (antibody, IgG1, name in Kabat numbering, V domains shown)
VH: B1 VH with N61V
VL: B1 VL with Q3V
B29: AC10 H3.32/L3 (antibody, IgG1, name in Kabat numbering, V domains shown)
VH: B1 VH with K59I
VL: B1 VL with Q3V
B30: AC10 H3.40/L3 (antibody, IgG1, name in Kabat numbering, V domains shown)
VH: B1 VH with E62Q
VL: B1 VL with Q3V
B31: AC10 H3.42/L3 (antibody, IgG1, name in Kabat numbering, V domains shown)
VH: B1 VH with V72L
VL: B1 VL with Q3V
B32: AC10 H3.37/L3 (antibody, IgG1, name in Kabat numbering, V domains shown)
VH: B1 VH with N61T
VL: B1 VL with Q3V
B33: AC10 H3.50/L3 (antibody, IgG1, name in Kabat numbering, V domains shown)
VH: B1 VH with A97V
VL: B1 VL with Q3V
B34: AC10 H3.45/L3 (antibody, IgG1, name in Kabat numbering, V domains shown)
VH: B1 VH with T91M
VL: B1 VL with Q3V
B35: AC10 H3.48/L3 (antibody, IgG1, name in Kabat numbering, V domains shown)
VH: B1 VH with F95Y
VL: B1 VL with Q3V
B36: AC10 H3.44/L3 (antibody, IgG1, name in Kabat numbering, V domains shown)
VH: B1 VH with V72R
VL: B1 VL with Q3V
B37: AC10 H3.29/L3 (antibody, IgG1, name in Kabat numbering, V domains shown)
VH: B1 VH with S55D
VL: B1 VL with Q3V
B38: AC10 H3.53/L3 (antibody, IgG1, name in Kabat numbering, V domains shown)
VH: B1 VH with N98K
VL: B1 VL with Q3V
B39: AC10 H3.49/L3 (antibody, IgG1, name in Kabat numbering, V domains shown)
VH: B1 VH with A97T
VL: B1 VL with Q3V
B40: AC10 H3.34/L3 (antibody, IgG1, name in Kabat numbering, V domains shown)
VH: B1 VH with N61A
VL: B1 VL with Q3V
B41: AC10 H3.39/L3 (antibody, IgG1, name in Kabat numbering, V domains shown)
VH: B1 VH with N61D
VL: B1 VL with Q3V
B42: AC10 H3.28/L3 (antibody, IgG1, name in Kabat numbering, V domains shown)
VH: B1 VH with P53V
VL: B1 VL with Q3V
B43: AC10 H3.55/L3 (antibody, IgG1, name in Kabat numbering, V domains shown)
VH: B1 VH with N98T
VL: B1 VL with Q3V
B44: AC10 H3.57/L3 (antibody, IgG1, name in Kabat numbering, V domains shown)
VH: B1 VH with A105D
VL: B1 VL with Q3V

Target: T1, human CD30 (commercial, conjugated to …)
Assay: AlphaScreen competition

| Binder | Fold IC50 vs H3/L3 [fold] |
| --- | --- |
| B1 | 1.32 |
| B2 | 1.64 |
| B3 | 1.66 |
| B4 | 0.58 |
| B5 | 0.32 |
| B6 | 1.04 |
| B7 | 1.24 |
| B8 | 1.15 |
| B9 | 1.3 |
| B10 | 0.94 |

Target: T1, human CD30 (commercial, conjugated to …)
Assay: AlphaScreen competition
Remark: another data set of the same source

| Binder | Fold IC50 vs H3/L3 [fold] |
| --- | --- |
| B11 | 0.03 |
| B12 | 2 |
| B13 | 1.24 |
| B14 | 1.28 |
| B15 | 1.22 |
| B16 | 1.21 |
| B17 | 1.45 |
| B18 | 0.88 |
| B19 | 0.16 |
| B20 | 0.5 |
| B21 | 1.05 |
| B22 | 1.24 |
| B23 | 0.82 |
| B24 | 1.38 |
| B25 | 0 |
| B26 | 1.24 |
| B27 | 1.39 |

| Binder | Fold IC50 vs H3/L3 [fold] |
| --- | --- |
| B28 | 1.14 |
| B29 | 1.09 |
| B30 | 1.83 |
| B31 | 0.66 |
| B32 | 1.01 |
| B33 | 1.4 |
| B34 | 1.14 |
| B35 | 1.6 |
| B36 | 1.76 |
| B37 | 1.81 |
| B38 | 0.02 |
| B39 | 0.38 |
| B40 | 1.3 |
| B41 | 1 |
| B42 | 1.34 |
| B43 | 0.91 |
| B44 | 0.53 |
